Data as given in paper PMC5304201 (2017).

Biological target: Amyloid-beta 42 oligomers Abeta42 (Homo sapiens, UniProt P05067, biotinylated Abeta42 oligomers, HA-tagged NRX1beta)
Test: cell surface binding assay, Scatchard

B1: Neurexin-1beta S4(-) (protein)
chain: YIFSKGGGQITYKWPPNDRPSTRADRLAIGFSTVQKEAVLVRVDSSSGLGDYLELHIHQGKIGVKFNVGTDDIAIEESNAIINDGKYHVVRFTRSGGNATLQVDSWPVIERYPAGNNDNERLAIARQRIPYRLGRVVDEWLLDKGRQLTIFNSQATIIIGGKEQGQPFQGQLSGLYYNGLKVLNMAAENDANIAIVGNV
How did the Kd turn out when B1 was run?
Its Kd is 184 nM.
